First the molecules themselves.
B1: myc-tagged human ARMC5 (pcDNA3.1-myc-hARMC5), wild type [human] / FLAG-SREBF1(N), N-terminus of mouse SREBF1, from pcDNA3.1-FLAG-Srebf1(N) in HEK293T [mouse] (parent complex)
chain 1: MAAAKPTLTDSLSFCLAQLAAAAGEALGGEKDPATNETPLSRALLALRTRHIKAAGGIERFRARGGLRPLLALLRRAAAAGSAPSQAGPGSAPSSAASGASSPAPASGPAPSAVSSSSPTPPVRLRKTLDLALSILADCCTEGACRTEVRRLGGILPLVTILQCMKTDSIQNRTARALGNLAMEPESCGDIHCAGAVPLLVESLTACQDSQCLQSVVRALRNLADSPQHRLALAQQGAVRPLAELLATAPDAALTLALVRALLELSRGCSRACAEQLSLGGGLGPLVSLASHPKRAVREGTILILANLCAQGLIRPALGNAGGVEVLVDELRQRRDPNGASPTSQQPLVRAVCLLCREAINRARLRDAGGLDLLMGLLRDPRASAWHPRIVAALVGFLYDTGALGRLQALGLVPLLAGQLCGEAGEEEEEGREAASWDFPEERTPERAQGGSFRSLRSWLISEGYATGPDDISPDWSPEQCPPEPMEPASPAPTPTSLRAPRTQRTPGRSPAAAIEEPWGREGPALLLLSRFSQAPDPSGALVTGPALYGLLTYVTGAPGPPSPRALRILSRLTCNPACLEAFVRSYGAALLRAWLVLGVAPDDWPAPRARPTLHSRHRELGERLLQNLTVQAESPFGVGALTHLLLSGSPEDRVACALTLPFICRKPSLWRRLLLEQGGLRLLLAALTRPAPHPLFLFFAADSLSCLQDLVSPTVSPAVPQAVPMDLDSPSPCLYEPLLGPAPVPAPDLHFLLDSGLQLPAQRAASATASPFFRALLSGSFAEAQMDLVPLRGLSPGAAWPVLHHLHGCRGCGAALGPVPPPGQPLLGSEAEEALEAAGRFLLPGLEEELEEAVGRIHLGPQGGPESVGEVFRLGRPRLAAHCARWTLGSEQCPRKRGLALVGLVEAAGEEAGPLTEALLAVVMGIELGARVPA
chain 2: DELAFGEAALEQTLAEMCELDTAVLNDIEDMLQLINNQDSDFPGLFDAPYAGGETGDTGPSSPGANSPESFSSASLASSLEAFLGGPKVTPAPLSPPPSAPAALKMYPSVSPFSPGPGIKEEPVPLTILQPAAPQPSPGTLLPPSFPAPPVQLSPAPVLGYSSLPSGFSGTLPGNTQQPPSSLPLAPAPGVLPTPALHTQVQSLASQQPLPASAAPRTNTVTSQVQQVPVVLQPHFIKADSLLLTAVKTDAGATVKTAGISTLAPGTAVQAGPLQTLVSGGTILATVPLVVDTDKLPIHRLAAGSKALGSAQSRGEKRTAHNAIEKRYRSSINDKIVELKDLVVGTEAKLNKSAVLRKAIDYIRFLQHSNQKLKQENLTLRSAHKSKSLKDLVSACGSGGGTDVSMEGMKPEVVETLTPPPSDAGSPSQSSPLSFGSRASSSGGSDSEPDSP

The variants in this assay derive from B1. Nature of the assay: co-immunoprecipitation (anti-FLAG IP) with western blot densitometry; HEK293T cells; n = 3; read off a plot. A general note: A western blot detects proteins with antibodies after separation by electrophoresis.
Regarding chain 1 L754P, the response is approximately 0.31 A.U. With chain 1 L331P, the response is approximately 0.12 A.U. Turning to chain 1 R315W, the response is approximately 0.12 A.U.

Regarding chain 1 R362L, the response is approximately 0.075 A.U.

chain 1 R898W: the response was approximately 0.3 A.U.

These data come from paper PMC9462479 (2022).
